This test has as its target GST-tag (glutathione S-transferase) freed from GST-ΔN-ATAD2B. As to the kind of experiment: SEC; Superdex 200 Increase 10/300 GL (ÄKTAprime), ATAD2B sample from E. coli against a molecular-weight standard mixture; peak 1 ~9 ml near thyroglobulin (670 kDa), peak 2 ~15 ml before ovalbumin (44 kDa).

This is an account of results in publication PMC12954864.

The stoichiometry N is the number of molecules, sites or subunits per partner or assembly.

For “GST-tag (glutathione S-transferase) freed from GST-ΔN-ATAD2B”, the stoichiometry N amounted to 2.
